T1: EsCas13d, nuclease-dead (Eubacterium siraeum, UniProt B0MS50, R295A;H300A;R849A;H854A)
T1 sequence: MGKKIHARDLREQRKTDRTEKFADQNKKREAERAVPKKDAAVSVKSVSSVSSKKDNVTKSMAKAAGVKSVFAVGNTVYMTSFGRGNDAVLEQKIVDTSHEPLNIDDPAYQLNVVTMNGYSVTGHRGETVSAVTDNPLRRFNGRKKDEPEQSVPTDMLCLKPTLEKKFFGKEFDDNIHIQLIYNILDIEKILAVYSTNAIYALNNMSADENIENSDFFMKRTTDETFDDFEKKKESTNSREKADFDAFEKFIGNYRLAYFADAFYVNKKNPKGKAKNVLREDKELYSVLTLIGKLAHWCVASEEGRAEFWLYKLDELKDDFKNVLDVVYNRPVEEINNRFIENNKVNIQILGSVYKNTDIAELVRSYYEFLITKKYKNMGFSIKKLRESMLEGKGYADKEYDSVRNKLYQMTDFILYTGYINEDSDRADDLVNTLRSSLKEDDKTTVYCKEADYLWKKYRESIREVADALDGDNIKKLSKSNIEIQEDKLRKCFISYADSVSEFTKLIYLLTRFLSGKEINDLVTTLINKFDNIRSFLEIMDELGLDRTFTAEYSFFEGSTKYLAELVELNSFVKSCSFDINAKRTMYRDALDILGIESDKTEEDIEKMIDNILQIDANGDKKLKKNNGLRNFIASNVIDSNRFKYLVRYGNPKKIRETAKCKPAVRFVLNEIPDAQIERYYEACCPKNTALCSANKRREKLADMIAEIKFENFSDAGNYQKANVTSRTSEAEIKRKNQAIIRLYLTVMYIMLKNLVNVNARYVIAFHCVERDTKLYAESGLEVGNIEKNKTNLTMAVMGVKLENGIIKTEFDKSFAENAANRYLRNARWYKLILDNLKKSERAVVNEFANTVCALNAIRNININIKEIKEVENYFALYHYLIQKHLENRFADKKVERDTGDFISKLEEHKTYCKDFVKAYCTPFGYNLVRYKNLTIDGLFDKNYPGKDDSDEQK

B1: target 1 MT 5'PFS UCA 3'PFS CGU (mixed)
RNA 1: CACCCGUGCAAAAAUGCAGGGGUCUAAAACUGAGCGGAUAACCUCUCUAUGG
RNA 2: GGGAAUGGAUCCACAUCUACGAAUUCUCACCAUAGAGAGGUUAUCCGCUCACGUAGAUCGGAAGAGCACACGU
B2: target 1 MT 5'PFS GAG 3'PFS UAA (mixed)
RNA 1: CACCCGUGCAAAAAUGCAGGGGUCUAAAACUGAGCGGAUAACCUCUCUAUGG
RNA 2: GGGAAUGGAUCCACAUCUACGAAUUCGAGCCAUAGAGAGGUUAUCCGCUCAUAAAGAUCGGAAGAGCACACGU
B3: target 1 MT 5'PFS GCC 3'PFS UUU (mixed)
RNA 1: CACCCGUGCAAAAAUGCAGGGGUCUAAAACUGAGCGGAUAACCUCUCUAUGG
RNA 2: GGGAAUGGAUCCACAUCUACGAAUUCGCCCCAUAGAGAGGUUAUCCGCUCAUUUAGAUCGGAAGAGCACACGU
B4: target 1 C2U,G12C (mixed)
RNA 1: CACCCGUGCAAAAAUGCAGGGGUCUAAAACUGAGCGGAUAACCUCUCUAUGG
RNA 2: GGGAAUGGAUCCACAUCUACGAAUUCGUACCAUAGAGAGCUUAUCCGCUUACCGAGAUCGGAAGAGCACACGU
B5: target 1 MT 5'PFS GCU 3'PFS AUU (mixed)
RNA 1: CACCCGUGCAAAAAUGCAGGGGUCUAAAACUGAGCGGAUAACCUCUCUAUGG
RNA 2: GGGAAUGGAUCCACAUCUACGAAUUCGCUCCAUAGAGAGGUUAUCCGCUCAAUUAGAUCGGAAGAGCACACGU
B6: target 1 MT 5'PFS UUC 3'PFS CCU (mixed)
RNA 1: CACCCGUGCAAAAAUGCAGGGGUCUAAAACUGAGCGGAUAACCUCUCUAUGG
RNA 2: GGGAAUGGAUCCACAUCUACGAAUUCUUCCCAUAGAGAGGUUAUCCGCUCACCUAGAUCGGAAGAGCACACGU
B7: target 1 MT 5'PFS GUU 3'PFS UUU (mixed)
RNA 1: CACCCGUGCAAAAAUGCAGGGGUCUAAAACUGAGCGGAUAACCUCUCUAUGG
RNA 2: GGGAAUGGAUCCACAUCUACGAAUUCGUUCCAUAGAGAGGUUAUCCGCUCAUUUAGAUCGGAAGAGCACACGU
B8: target 1 MT 5'PFS GCC 3'PFS UUG (mixed)
RNA 1: CACCCGUGCAAAAAUGCAGGGGUCUAAAACUGAGCGGAUAACCUCUCUAUGG
RNA 2: GGGAAUGGAUCCACAUCUACGAAUUCGCCCCAUAGAGAGGUUAUCCGCUCAUUGAGAUCGGAAGAGCACACGU
B9: target 1 MT 5'PFS GAA 3'PFS CCU (mixed)
RNA 1: CACCCGUGCAAAAAUGCAGGGGUCUAAAACUGAGCGGAUAACCUCUCUAUGG
RNA 2: GGGAAUGGAUCCACAUCUACGAAUUCGAACCAUAGAGAGGUUAUCCGCUCACCUAGAUCGGAAGAGCACACGU
B10: target 1 MT 5'PFS GCC 3'PFS CAG (mixed)
RNA 1: CACCCGUGCAAAAAUGCAGGGGUCUAAAACUGAGCGGAUAACCUCUCUAUGG
RNA 2: GGGAAUGGAUCCACAUCUACGAAUUCGCCCCAUAGAGAGGUUAUCCGCUCACAGAGAUCGGAAGAGCACACGU
B11: target 1 MT 5'PFS GGC 3'PFS CAU (mixed)
RNA 1: CACCCGUGCAAAAAUGCAGGGGUCUAAAACUGAGCGGAUAACCUCUCUAUGG
RNA 2: GGGAAUGGAUCCACAUCUACGAAUUCGGCCCAUAGAGAGGUUAUCCGCUCACAUAGAUCGGAAGAGCACACGU
B12: target 1 MT 5'PFS UCA 3'PFS ACA (mixed)
RNA 1: CACCCGUGCAAAAAUGCAGGGGUCUAAAACUGAGCGGAUAACCUCUCUAUGG
RNA 2: GGGAAUGGAUCCACAUCUACGAAUUCUCACCAUAGAGAGGUUAUCCGCUCAACAAGAUCGGAAGAGCACACGU
B13: target 1 MT 5'PFS GAG 3'PFS UAC (mixed)
RNA 1: CACCCGUGCAAAAAUGCAGGGGUCUAAAACUGAGCGGAUAACCUCUCUAUGG
RNA 2: GGGAAUGGAUCCACAUCUACGAAUUCGAGCCAUAGAGAGGUUAUCCGCUCAUACAGAUCGGAAGAGCACACGU
B14: target 1 MT 5'PFS GCC 3'PFS UUC (mixed)
RNA 1: CACCCGUGCAAAAAUGCAGGGGUCUAAAACUGAGCGGAUAACCUCUCUAUGG
RNA 2: GGGAAUGGAUCCACAUCUACGAAUUCGCCCCAUAGAGAGGUUAUCCGCUCAUUCAGAUCGGAAGAGCACACGU
B15: target 1 insU 3' of 14,insA 3' of 8 (mixed)
RNA 1: CACCCGUGCAAAAAUGCAGGGGUCUAAAACUGAGCGGAUAACCUCUCUAUGG
RNA 2: GGGAAUGGAUCCACAUCUACGAAUUCGUACCAUAGAGAUGGUUAUACCGCUCACCGAGAUCGGAAGAGCACACGU
B16: target 1 MT 5'PFS UCA 3'PFS ACU (mixed)
RNA 1: CACCCGUGCAAAAAUGCAGGGGUCUAAAACUGAGCGGAUAACCUCUCUAUGG
RNA 2: GGGAAUGGAUCCACAUCUACGAAUUCUCACCAUAGAGAGGUUAUCCGCUCAACUAGAUCGGAAGAGCACACGU
B17: target 1 MT 5'PFS GAG 3'PFS UAG (mixed)
RNA 1: CACCCGUGCAAAAAUGCAGGGGUCUAAAACUGAGCGGAUAACCUCUCUAUGG
RNA 2: GGGAAUGGAUCCACAUCUACGAAUUCGAGCCAUAGAGAGGUUAUCCGCUCAUAGAGAUCGGAAGAGCACACGU
B18: target 1 MT 5'PFS GGC 3'PFS CAA (mixed)
RNA 1: CACCCGUGCAAAAAUGCAGGGGUCUAAAACUGAGCGGAUAACCUCUCUAUGG
RNA 2: GGGAAUGGAUCCACAUCUACGAAUUCGGCCCAUAGAGAGGUUAUCCGCUCACAAAGAUCGGAAGAGCACACGU
B19: target 1 MT 5'PFS UCA 3'PFS ACG (mixed)
RNA 1: CACCCGUGCAAAAAUGCAGGGGUCUAAAACUGAGCGGAUAACCUCUCUAUGG
RNA 2: GGGAAUGGAUCCACAUCUACGAAUUCUCACCAUAGAGAGGUUAUCCGCUCAACGAGAUCGGAAGAGCACACGU
B20: target 1 MT 5'PFS GCC 3'PFS UUA (mixed)
RNA 1: CACCCGUGCAAAAAUGCAGGGGUCUAAAACUGAGCGGAUAACCUCUCUAUGG
RNA 2: GGGAAUGGAUCCACAUCUACGAAUUCGCCCCAUAGAGAGGUUAUCCGCUCAUUAAGAUCGGAAGAGCACACGU
B21: target 1 insG 3' of 22,insG 3' of 6 (mixed)
RNA 1: CACCCGUGCAAAAAUGCAGGGGUCUAAAACUGAGCGGAUAACCUCUCUAUGG
RNA 2: GGGAAUGGAUCCACAUCUACGAAUUCGUACGCAUAGAGAGGUUAUCCGGCUCACCGAGAUCGGAAGAGCACACGU
B22: target 1 MT 5'PFS GUU 3'PFS AUU (mixed)
RNA 1: CACCCGUGCAAAAAUGCAGGGGUCUAAAACUGAGCGGAUAACCUCUCUAUGG
RNA 2: GGGAAUGGAUCCACAUCUACGAAUUCGUUCCAUAGAGAGGUUAUCCGCUCAAUUAGAUCGGAAGAGCACACGU
B23: target 1 MT 5'PFS GCU 3'PFS AUA (mixed)
RNA 1: CACCCGUGCAAAAAUGCAGGGGUCUAAAACUGAGCGGAUAACCUCUCUAUGG
RNA 2: GGGAAUGGAUCCACAUCUACGAAUUCGCUCCAUAGAGAGGUUAUCCGCUCAAUAAGAUCGGAAGAGCACACGU

This data set addresses T1, EsCas13d, nuclease-dead. The experiment in a line: crRNA (strand 1, pre-loaded); Mg2+; 40 mM Tris-HCl pH 7.5, 150 mM NaCl, 6 mM MgCl2, 1 mM DTT, 0.1% Tween-20, 0.2 mg/ml BSA; 25 C; 10 min per concentration, then washed. The conditions noted are these: tags: His6-TwinStrep-SUMO cleaved; N-terminal SNAP kept (SNAP-Surface 488); label: 3' end held by stalled T7 RNA polymerase.
One may read the Kd as the concentration at which binding is half-saturated. A low value points to higher affinity. B1 had a dissociation constant (Kd) of 18.5 ± 6.5 nM.
In turn, B2 returned a dissociation constant (Kd) of 28.5 ± 8 nM.
The figure for B3 is 9.4 ± 2 nM; for B4 it is 7.1 ± 0.5 nM; for B5 it is 76 ± 31 nM.
Take B6: binding was put at a Kd of 66 ± 27 nM.
The result for B7 reads 8.95 ± 0.95 nM; that for B8, 8.2 ± 1.1 nM; that for B9, around 21 nM.
On to B10, for which the Kd is 44 ± 21 nM.
The figure for B11 is 15.7 ± 5.5 nM; for B12 it is 13.2 ± 3.35 nM.
The result for B13 reads around 60 nM; that for B14, 17 ± 5.5 nM.
The result for B15 reads 38.6 ± 3.2 nM; that for B16, 14 ± 4.5 nM.
In turn, B17 had a dissociation constant Kd of 46.5 ± 15.5 nM.
The result for B18 reads around 34 nM; that for B19, around 65 nM.
B20 showed a dissociation constant (Kd) of 12.5 ± 3.7 nM.
On to B21, for which the Kd is 51 ± 10 nM. This Kd lies about 4.1-fold higher than the previous one.
The result for B22 reads 13.9 ± 2.3 nM; that for B23, 57 ± 16 nM.

For the origin of these results see article PMC10786891, “Massively parallel profiling of RNA-targeting CRISPR-Cas13d”.
